{"source": "paper PMC5928161", "target": "FLAG-tagged a3 isoform of the V-ATPase a subunit (mouse) (UniProt Q9JHF5)", "sequence (Q9JHF5 entry or part of it)": "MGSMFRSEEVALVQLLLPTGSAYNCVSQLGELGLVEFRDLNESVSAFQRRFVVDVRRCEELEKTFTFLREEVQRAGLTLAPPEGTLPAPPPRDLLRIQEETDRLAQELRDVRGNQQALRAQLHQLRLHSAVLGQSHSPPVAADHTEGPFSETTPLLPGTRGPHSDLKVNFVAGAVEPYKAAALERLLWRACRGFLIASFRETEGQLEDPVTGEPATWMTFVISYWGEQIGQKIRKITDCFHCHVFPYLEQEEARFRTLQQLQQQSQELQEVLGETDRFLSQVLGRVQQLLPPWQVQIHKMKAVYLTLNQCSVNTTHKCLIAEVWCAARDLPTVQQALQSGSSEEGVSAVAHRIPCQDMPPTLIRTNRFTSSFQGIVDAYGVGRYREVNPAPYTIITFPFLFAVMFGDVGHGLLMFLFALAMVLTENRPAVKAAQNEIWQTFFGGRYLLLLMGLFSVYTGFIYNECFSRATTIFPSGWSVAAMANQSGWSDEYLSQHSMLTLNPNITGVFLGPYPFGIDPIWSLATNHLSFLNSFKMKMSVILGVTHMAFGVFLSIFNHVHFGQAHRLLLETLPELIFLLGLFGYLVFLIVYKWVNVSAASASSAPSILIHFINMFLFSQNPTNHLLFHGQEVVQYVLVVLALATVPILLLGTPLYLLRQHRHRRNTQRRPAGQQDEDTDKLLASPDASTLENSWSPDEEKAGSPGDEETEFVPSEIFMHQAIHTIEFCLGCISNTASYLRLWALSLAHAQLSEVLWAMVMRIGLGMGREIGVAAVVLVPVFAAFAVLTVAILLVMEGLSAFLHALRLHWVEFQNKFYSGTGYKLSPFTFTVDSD", "experiment": "co-immunoprecipitation (anti-FLAG IP, anti-V5 Western blot)", "details": "HEK293T cells; intensity of V5-fused GTP-binding protein co-precipitated with a3 normalised to that of V5-Rab7"}
{"substance": "H-Ras W C (substitution not printed)", "values": [{"measurement": "other: relative signal intensity", "value": "< 0.1"}]}
{"substance": "H-Ras W D (substitution not printed)", "values": [{"measurement": "other: relative signal intensity", "value": "< 0.1"}]}
{"substance": "Ran W C (substitution not printed)", "values": [{"measurement": "other: relative signal intensity", "value": "< 0.1"}]}
{"substance": "Ran W D (substitution not printed)", "values": [{"measurement": "other: relative signal intensity", "value": "< 0.1"}]}
